Assay results: patent publication US20230322953A1 (HARBOUR BIOMED SHANGHAI, published 2023)

B1: PR002901 (bispecific antibody, human IgG1, lambda, L234A L235A)
light: QAVVTQEPSLTVSPGGTVTLTCRSSTGAVTTSNYANWVQQKPGQAPRGLIGGTNKRAPWTPARFSGSLLGDKAALTLLGAQPEDEAEYFCALWYSNLWVFGGGTKLTVLGQPKAAPSVTLFPPSSEELQANKATLVCLISDFYPGAVTVAWKADSSPVKAGVETTTPSKQSNNKYAASSYLSLTPEQWKSHRSYSCQVTHEGSTVEKTVAPTECS
heavy: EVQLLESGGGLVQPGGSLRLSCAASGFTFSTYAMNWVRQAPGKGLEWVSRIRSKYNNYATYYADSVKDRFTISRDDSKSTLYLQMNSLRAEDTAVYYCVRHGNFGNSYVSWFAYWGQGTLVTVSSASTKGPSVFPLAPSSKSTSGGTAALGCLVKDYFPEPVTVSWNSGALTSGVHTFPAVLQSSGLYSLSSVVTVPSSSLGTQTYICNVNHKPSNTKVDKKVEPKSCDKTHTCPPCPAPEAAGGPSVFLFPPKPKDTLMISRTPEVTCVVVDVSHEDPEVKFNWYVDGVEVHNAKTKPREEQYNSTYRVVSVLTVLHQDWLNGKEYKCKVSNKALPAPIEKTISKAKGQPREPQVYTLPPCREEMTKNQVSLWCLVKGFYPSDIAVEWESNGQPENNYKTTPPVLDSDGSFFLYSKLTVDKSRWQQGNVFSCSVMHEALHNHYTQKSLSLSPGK
chain: EVQLVETGGGLIQPGGSLRLSCAASGFTVSDNYMTWVRQAPGKGLEWVSVIFSGGNTYYADSVKGRFTISRDNAKNTLYLQMNSLRAEDTALYYCARRNYDDTRGTDVFDIWGQGTMVTVSSGSGSEVQLVETGGGLIQPGGSLRLSCAASGFTVSDNYMTWVRQAPGKGLEWVSVIFSGGNTYYADSVKGRFTISRDNAKNTLYLQMNSLRAEDTALYYCARRNYDDTRGTDVFDIWGQGTMVTVSSASEPKSSDKTHTCPPCPAPEAAGGPSVFLFPPKPKDTLMISRTPEVTCVVVDVSHEDPEVKFNWYVDGVEVHNAKTKPREEQYNSTYRVVSVLTVLHQDWLNGKEYKCKVSNKALPAPIEKTISKAKGQPREPQVCTLPPSREEMTKNQVSLSCAVKGFYPSDIAVEWESNGQPENNYKTTPPVLDSDGSFFLVSKLTVDKSRWQQGNVFSCSVMHEALHNHYTQKSLSLSPGK
B2: PR002959 (bispecific antibody, human IgG1, lambda, L234A L235A)
light: B1 light
heavy: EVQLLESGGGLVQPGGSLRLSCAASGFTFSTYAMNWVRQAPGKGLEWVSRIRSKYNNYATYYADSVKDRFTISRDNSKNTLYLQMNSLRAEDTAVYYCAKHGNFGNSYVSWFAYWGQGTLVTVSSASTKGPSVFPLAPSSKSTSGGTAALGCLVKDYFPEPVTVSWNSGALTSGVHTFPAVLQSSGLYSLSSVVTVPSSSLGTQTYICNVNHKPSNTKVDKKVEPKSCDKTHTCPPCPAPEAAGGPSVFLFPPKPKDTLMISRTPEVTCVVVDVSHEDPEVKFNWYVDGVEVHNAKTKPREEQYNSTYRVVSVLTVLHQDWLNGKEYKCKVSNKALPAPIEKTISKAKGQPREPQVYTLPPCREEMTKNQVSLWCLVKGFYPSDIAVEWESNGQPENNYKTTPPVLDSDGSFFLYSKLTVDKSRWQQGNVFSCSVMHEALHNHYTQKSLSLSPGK
chain: B1 chain
B3: Anti-4-1BB heavy-chain antibody PR001838_G53A, hIgG1 (antibody, V domains shown)
VH: EVQLLESGGGLVQPGGSLRLSCAASGFTFSNYAMSWFRQPPETGLKWVSSIDASGGDTYYADSVKGRFTISRDNSKNTLYLQMNSLRAEDTAVYYCAKEGSHGTDDSHYDVDVWGQGTTVTVSS
notes: HCAb (heavy chain dimer, no light chain), hIgG1 Fc; also called PR004469
B4: Anti-4-1BB heavy-chain antibody 1016P0042C5, hIgG1 (antibody, V domains shown)
VH: EVQLLESGGGLVQPGGSLRLSCAASGFTFSNYAMTWVRQPPGKGLEWVSSISGSGGSTYYADSVKGRFTISRDNSKNTLYLQMNSLRAEDTAVYYCAKEGTGTTSDYYYNVDVWGQGTTVTVSS
notes: HCAb (heavy chain dimer, no light chain), hIgG1 Fc; also called PR001771
B5: Anti-4-1BB heavy-chain antibody 1016P0020G4, hIgG1 (antibody, V domains shown)
VH: EVQLLESGGGLVQPGGSLRLSCAASGFIFSNFAMTWVRQPPEKGLKWVSSINGSGFNTYYTDSVKGRFTISRDNSRNTLYLQMNRLTAEDTAVYFCAKEGSSETDDHYYNVDVWGQGTTVTVSS
notes: HCAb (heavy chain dimer, no light chain), hIgG1 Fc; also called PR001836
B6: Anti-4-1BB heavy-chain antibody 1016P0037D2, hIgG1 (antibody, V domains shown)
VH: EVQLVESGGGLVQPGGSLRLSCAASGFTFSSYWMHWVRQAPGKGLVWVSRINSDGSSTSYADSVQGRFTISRDNAKNTLYLQMNSLRAEDTAVYYCVRKGSSSYYHYSIEDDWGQGTLVTVSS
notes: HCAb (heavy chain dimer, no light chain), hIgG1 Fc; also called PR001840
B7: Anti-4-1BB heavy-chain antibody 1016P0010B11, hIgG1 (antibody, V domains shown)
VH: EVQLLESGGGLVQLGGSLRLSCAASGFTFSRYAMTWVRQAPEKGLEWVSSISGSGDDTYYGDSVKGRFTISRDNSQNTVYLQMNSLRAEDTAVYFCAKEKAGTTGDYYYNVDVWGQGTTVTVSS
notes: HCAb (heavy chain dimer, no light chain), hIgG1 Fc; also called PR001758

Legend:
human BCMA [1] = target: T1, human BCMA (human, UniProt Q02223 1-184); assay: FACS on HEK293T/hBCMA cells, Experiment 2
T1 construct: whole, on cells; also called hBCMA; TNFRSF17
T1 sequence (looked up): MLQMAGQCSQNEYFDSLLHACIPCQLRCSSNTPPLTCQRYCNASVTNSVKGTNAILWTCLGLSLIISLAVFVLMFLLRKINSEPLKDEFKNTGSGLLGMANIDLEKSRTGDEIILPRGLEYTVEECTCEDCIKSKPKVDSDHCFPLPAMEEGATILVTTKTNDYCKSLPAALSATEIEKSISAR

cynomolgus monkey BCMA = target: T2, cynomolgus monkey BCMA (cynomolgus monkey, UniProt A0A2K5UD97 1-183); assay: FACS on HEK293T/cyno BCMA cells
T2 construct: whole, on cells; also called cyno BCMA
T2 sequence (A0A2K5UD97 entry or part of it): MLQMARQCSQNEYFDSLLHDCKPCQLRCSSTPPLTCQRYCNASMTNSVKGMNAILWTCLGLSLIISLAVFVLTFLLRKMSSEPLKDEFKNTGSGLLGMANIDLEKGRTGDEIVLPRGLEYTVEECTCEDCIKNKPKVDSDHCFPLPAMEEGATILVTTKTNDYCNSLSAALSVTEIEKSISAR

human BCMA [2] = target: T1, human BCMA; assay: FACS on NCI-H929 cells
[3] = target: T3, human 4-1BB (tumor necrosis factor receptor superfamily member 9) (human, UniProt Q07011 24-255); assay: flow cytometry (FACS) on CHO-K1/hu 4-1BB cells
T3 construct: whole, on cells; also called hu 4-1BB; CD137
T3 sequence (Q07011 24-255): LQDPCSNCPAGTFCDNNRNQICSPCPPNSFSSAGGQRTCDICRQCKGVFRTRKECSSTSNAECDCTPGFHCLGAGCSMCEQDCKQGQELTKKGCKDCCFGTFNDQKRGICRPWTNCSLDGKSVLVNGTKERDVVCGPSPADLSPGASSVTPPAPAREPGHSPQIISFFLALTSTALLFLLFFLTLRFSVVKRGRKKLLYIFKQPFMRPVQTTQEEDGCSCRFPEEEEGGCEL

Row | Binder | EC50 (human BCMA [1]) [nM] | Maximum MFI (human BCMA [1]) | Maximum MFI (cynomolgus monkey BCMA) | EC50 (human BCMA [2]) [nM] | Maximum MFI (human BCMA [2]) | EC50 [3] [nM] | Maximum MFI [3] [MFI]
1 | B1 | 0.654 | 14700 | 11000 | 2.32 | 4180 |  | 
2 | B2 |  | 23900 | 30600 | 4.3 | 4210 |  | 
3 | B3 |  |  |  |  |  | 1.29 | 109000
4 | B4 |  |  |  |  |  | 0.532 | 1720
5 | B5 |  |  |  |  |  | 0.28 | 1830
6 | B6 |  |  |  |  |  | 0.43 | 1790
7 | B7 |  |  |  |  |  | 0.212 | 1640
